Data reported in patent publication US20230295310A1 (ABCELLERA BIOLOGICS, published 2023).

B1: mAb 143 (antibody, V domains shown)
VH: QVQLMQSGSELEKPGASVKVSCKASGYTFTSFAINWVRQAPGQGLEWMGWINTITGNPSYAQGFTGRFVFSLDTSVTTAFLQINSLKTEDTAVYYCARYVTSSGKFDYWGQGTLVTVSS
VL: DIQMTQSPSSVSASVGDRVTITCRASRGISRWLDWYQQKPGKAPKLLIYAASNLQGGVPSRFSGSGSGTDFTLTIRSLQPEDFAIYYCQQAKTFPFTFGPGTKVDIK
B2: mAb 179 (antibody, V domains shown)
VH: EVQLVESGGGLVQPGRSLRLSCAASGFTFDDYTMHWVRQTPGKGLEWVSDISWNSGSIGYADSVKGRFTISRDNAKNTLYLQMNSLRAEDTALYYCVKDSSGYGHYLYYYMDVWGKGTTVTVSS
VL: DIQMTQSPSSLSASVGDRVTITCRASQSIRNYLNWYQQSPGRAPKLLIFSASSLQSGVPSRFSGSGSGTDFTLTISSLQPEDFVTYYCQQRYSTPITFGQGTRLEIK
notes: VH/VL only

How the values were obtained:
[1] = target: T1, human CD3 expressed on cells (human, UniProt P07766 23-207; P04234 22-171; P09693 23-182); assay: flow cytometry, 25 nM
T1 construct: whole, on cells; CD3 complex on Jurkat cells and on human primary T cells
Method in brief: (§1)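 Antibodies at 25 nM in PBS + 2% FBS were incubated with CD3-expressing cells for 30 minutes at 4° C and analysed by flow cytometry. Median fluorescence intensity was normalized to isotype control to give fold over isotype (FOI); FOI ≥10 counted as binding.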

[2] = target: T2, cynomolgus monkey CD3 expressed on primary T cells (cynomolgus monkey, UniProt Q95LI5 22-198; Q95LI8 22-171; Q95LI7 23-181); assay: flow cytometry, 25 nM, cyno primary T cells
T2 construct: whole, on cells; CD3 complex on purified cynomolgus monkey T cells; also called cyno CD3
Method in brief: as §1

[3] = target: T1, human CD3 expressed on cells; assay: flow cytometry, human primary T cells (Jurkat cells in c2 gave 15.495, CD3 KO Jurkat cells in c3 gave 38.63)
Description: Purified antibodies were confirmed to bind CD3 expressed on cells using the CytoFLEX S or LX flow cytometers (Beckman Coulter). Antibodies were diluted to 25 nM in FACS buffer (PBS+2% FBS) and were incubated with CD3-expressing cells for 30 minutes at 4° C. […] The median fluorescence intensity of the binding signal for each antibody was normalized to the isotype control to obtain a fold over isotype value. An antibody with a fold over isotype (FOI) of ≥10 was considered to be positive for binding.

[4] = target: T3, human CD3 expressed on cells (Jurkat cells; human primary T cells) (human, UniProt P07766 23-207; P04234 22-171; P09693 23-182); assay: flow cytometry, 25 nM, Jurkat cells
T3 construct: whole, on cells
Method in brief: as §1

[5] = target: T4, cynomolgus monkey CD3 expressed on cyno primary T cells (cynomolgus monkey, UniProt Q95LI5 22-198; Q95LI8 22-171; Q95LI7 23-181); assay: flow cytometry, 25 nM, cyno primary T cells
T4 construct: whole, on cells; CD3 complex on purified cynomolgus monkey CD3 pan T cells; also called cyno CD3
Method in brief: as §1

[6] = target: T3, human CD3 expressed on cells (Jurkat …); assay: flow cytometry, 25 nM, human primary T cells
Method in brief: as §1

T1 sequence (P07766 23-207, chain 1 of 3): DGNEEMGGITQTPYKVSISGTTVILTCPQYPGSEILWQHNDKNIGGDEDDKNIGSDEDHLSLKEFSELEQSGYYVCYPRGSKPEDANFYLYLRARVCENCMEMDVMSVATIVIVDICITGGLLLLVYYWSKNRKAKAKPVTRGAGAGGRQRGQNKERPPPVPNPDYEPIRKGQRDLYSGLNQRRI
T1 sequence (P04234 22-171, chain 2 of 3): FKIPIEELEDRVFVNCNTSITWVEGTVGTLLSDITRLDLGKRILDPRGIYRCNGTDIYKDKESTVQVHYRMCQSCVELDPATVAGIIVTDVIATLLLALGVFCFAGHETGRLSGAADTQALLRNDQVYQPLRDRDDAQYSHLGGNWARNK
T1 sequence (P09693 23-182, chain 3 of 3): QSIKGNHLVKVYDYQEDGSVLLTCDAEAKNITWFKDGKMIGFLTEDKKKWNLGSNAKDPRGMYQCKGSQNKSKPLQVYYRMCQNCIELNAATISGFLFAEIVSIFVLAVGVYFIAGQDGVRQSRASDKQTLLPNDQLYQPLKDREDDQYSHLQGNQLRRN
T3 sequence (P07766 23-207, chain 1 of 3): as the sequence (P07766 23-207, chain 1 of 3) above
T3 sequence (P04234 22-171, chain 2 of 3): as the sequence (P04234 22-171, chain 2 of 3) above
T3 sequence (P09693 23-182, chain 3 of 3): as the sequence (P09693 23-182, chain 3 of 3) above
T2 sequence (Q95LI5 22-198, chain 1 of 3): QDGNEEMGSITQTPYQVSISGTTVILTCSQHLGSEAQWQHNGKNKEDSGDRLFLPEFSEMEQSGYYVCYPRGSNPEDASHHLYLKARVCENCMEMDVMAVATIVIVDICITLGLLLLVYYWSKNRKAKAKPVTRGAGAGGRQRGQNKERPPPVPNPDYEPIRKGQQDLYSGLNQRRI
T2 sequence (Q95LI8 22-171, chain 2 of 3): as the sequence (P04234 22-171, chain 2 of 3) above, with I5V, N15K, I20V, S32T, D33N, I34N, T64A, S74N, V83L, H141R counted along it
T2 sequence (Q95LI7 23-181, chain 3 of 3): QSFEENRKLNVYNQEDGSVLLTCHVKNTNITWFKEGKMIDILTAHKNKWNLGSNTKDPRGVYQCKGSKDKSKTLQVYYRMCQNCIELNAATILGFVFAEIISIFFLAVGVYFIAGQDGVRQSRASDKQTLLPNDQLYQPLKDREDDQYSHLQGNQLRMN
T4 sequence (Q95LI5 22-198, chain 1 of 3): as the sequence (Q95LI5 22-198, chain 1 of 3) above
T4 sequence (Q95LI8 22-171, chain 2 of 3): as the sequence (P04234 22-171, chain 2 of 3) above, with I5V, N15K, I20V, S32T, D33N, I34N, T64A, S74N, V83L, H141R counted along it
T4 sequence (Q95LI7 23-181, chain 3 of 3): as the sequence (Q95LI7 23-181, chain 3 of 3) above

Binder	Jurkat Cell Binding (FOI) [1]	binding result [2]	binding result [3]	Binding (FOI) [4]	Binding (FOI) [5]	Binding (FOI) [6]
B1	15.5 FOI	no binding (tested: FOI >=10 = positive)	no binding (tested: FOI >=10 = positive; 25 nM)			
B2				129 FOI	54.2 FOI	177 FOI
